# Measured values from PMC6994669.
# Molecular target: PTPδ D2-His6 F1503A (mouse)
# Experiment: SPR; Biacore T200, 25 °C, 10 mM Hepes-NaOH pH 7.5, 150 mM NaCl, 0.005% Tween-20; wild-type or mutant PTPδ D2-His6 amine-coupled on a CM5 chip; wild-type or mutant Liprin-α3 tSAM injected, twofold dilutions from 40 µM to 39 nM; equilibrium KD
# Sequence of mouse Liprin-α3 tSAM (residues 808–1114) (P60469 808-1114): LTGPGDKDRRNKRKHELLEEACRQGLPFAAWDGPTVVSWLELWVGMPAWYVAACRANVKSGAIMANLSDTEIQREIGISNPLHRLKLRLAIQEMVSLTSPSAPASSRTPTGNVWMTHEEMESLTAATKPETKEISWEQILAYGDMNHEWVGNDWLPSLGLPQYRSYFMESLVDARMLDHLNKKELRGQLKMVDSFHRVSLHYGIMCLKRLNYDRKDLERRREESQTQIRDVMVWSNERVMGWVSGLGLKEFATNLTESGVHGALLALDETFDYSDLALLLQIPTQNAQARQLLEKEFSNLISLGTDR
substance,measurement,value
mouse Liprin-α3 tSAM (residues 808–1114) (from UniProt P60469 808-1114) (domain or fragment),Kd,8.3 µM
